In PMC10599318, “RNA-sequencing analysis reveals novel genes involved in the different peel color formation in eggplant”:

Target: T1, SmMYB113 (Solanum melongena, UniProt A0A0A0QP33 1-256)
T1 sequence: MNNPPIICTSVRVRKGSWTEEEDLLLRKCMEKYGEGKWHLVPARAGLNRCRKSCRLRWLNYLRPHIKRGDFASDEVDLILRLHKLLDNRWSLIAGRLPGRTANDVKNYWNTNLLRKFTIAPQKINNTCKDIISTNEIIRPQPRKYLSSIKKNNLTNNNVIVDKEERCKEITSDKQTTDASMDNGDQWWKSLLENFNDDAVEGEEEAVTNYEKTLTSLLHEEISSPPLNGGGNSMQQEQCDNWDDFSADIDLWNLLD
Experiment: EMSA; EMSA per manufacturer's instructions (Thermo Pierce); buffer, salt, pH and temperature not stated; unlabeled competitor 10x, 30x, 100x
Settings: protein: recombinant; tags: His (pET32a fusion); label: biotin; blunt

B1: SmMATE probe (dsDNA)
DNA 1: AACAATTGCTATAACTACAGTTAGGGAATGCAATTACCG
DNA 2: CGGTAATTGCATTCCCTAACTGTAGTTATAGCAATTGTT
Does B1 bind?
Result: binds

B2: SmCytb5 probe (dsDNA)
DNA 1: TCCAAGTTTTTTTCTTTGGTTGATAATTTTATCTAACG
DNA 2: CGTTAGATAAAATTATCAACCAAAGAAAAAAACTTGGA
Does B2 bind?
Result: binds

B3: SmGST probe (dsDNA)
DNA 1: CAGACTTTCCACTCAACCACTGGTTGCTGCTCATCTTCA
DNA 2: TGAAGATGAGCAGCAACCAGTGGTTGAGTGGAAAGTCTG
Does B3 bind?
Result: binds

B4: SmF3'5'M probe (dsDNA)
DNA 1: TTTTTTTTTTGCTTAGACAACTGGCAAGGATTTTACTAA
DNA 2: TTAGTAAAATCCTTGCCAGTTGTCTAAGCAAAAAAAAAA
Does B4 bind?
Result: binds

B5: SmASAT3 probe (dsDNA)
DNA 1: TTGGTTTTTATGGGCACAGTTGCTACTATGGGTGAATA
DNA 2: TATTCACCCATAGTAGCAACTGTGCCCATAAAAACCAA
Does B5 bind?
Result: binds
